Results on 1 molecule are retold here after patent US20230158109A1, “USE OF CD83 IN COMBINATION THERAPIES” (Colmmune, Inc., priority 2006, published 2023).

Test [1] deals with T cells stimulated with allogeneic mature dendritic cells. In words: Regulatory T cell generation by sCD83-treated allogeneic dendritic cells. Conditions: DCs treated with sCD83 50 μg/ml; different DC:T ratios. The format is cell-based, cynomolgous monkeys. Here is the method: Regulatory T cells were also prepared using dendritic cells prepared from cynomolgous monkeys, as follows. Cynomolgous monkey myeloid dendritic cells were generated from CD14^+ monocyte cells in the presence of GM-CSF and IL-4 for 7 days; soluble CD83 at 50 ug/ml was added to some cultures on days 3 through 7, and a maturation cocktail of IL-1(3, IL-6, TNF-α and PGE-2 was added on days 5 through 7. T cells (1×10^6/ml) were isolated by negative selection and stimulated at different ratios with the allogeneic mature dendritic cells that had been either treated or untreated with sCD83 (50 μg/ml). Cells were then stained to identify regulatory T cells (i.e. CD4^+CD25^+ Foxp3^+ cells) and analyzed by FACS.

Test [2] has as its system spleen cells (lymphocytes). In words: KLH restimulation of spleen cells from sCD83-treated EAE mice. In kind it is in vivo, mouse. As to conditions: sCD83 100 μg daily for ten days, KLH 28 days after last injection, spleen cells ten days later. Here is the method: In order to induce EAE, mice were immunized with a peptide derived from myelin oligodendrocyte glycoprotein (MOG), a constituent of the myelin sheath surrounding neurons of the central nervous system, and with pertussis toxin (see, e.g., Zinser et al. (2004) J. Exp. Med. 200: 345-351). Beginning ten days later, the mice were inoculated with soluble CD83 (100 μg) every day for ten days. 28 days after the last injection of soluble CD83, mice were injected subcutaneously with keyhole limpet hemocyanin (“KLH,” 10 μg/mouse). Ten days later, spleen cells were removed from the mice and restimulated with different doses of KLH. Lymphocyte proliferation in response to this stimulation was measured by [^3H]-thymidine incorporation.

Test [3] relates to C3H Hearts in BALB/c Recipients. Put plainly: Heterotopic heart transplantation, graft survival, C3H to BALB/c. Conditions: sCD83 100 μg i.p. daily day -1 to 28, sirolimus 2 mg/kg oral day 0-14, anti-CD45RB 100 μg i.v. day 0-14.
Method: Hearts were removed from donor mice as indicated and transplanted into the peritoneal cavity of recipient mice (i.e., heterotopic transplantation). Recipient mice were treated as indicated, with some treatments beginning prior to transplantation. Survival of the allograft was monitored and scored as follows: “A,” beating strongly; “B,” mild decline in the intensity of pulsation; “C,” noticeable decline in the intensity of pulsation; “D,” complete cessation of cardiac impulses. Mean survival time of the transplanted tissue was determined for each treatment.
In a first set of experiments, C3H donor mice and BALB/c recipient mice were used. In this set of experiments, sCD83 treatment began on day −1 (i.e., the day prior to transplantation) and lasted until day 28; each day, 100 μg of sCD83 was administered to each mouse by intraperitoneal injection. Sirolimus treatment began on day 0 (i.e., the day of transplantation) and continued until day 14; each day, 2 mg/kg of sirolimus was administered orally to each mouse. Anti-CD45RB treatment began on day 0 and continued until day 14; each day, 100 μg of anti-CD45RB (BioExpress, Inc., West Lebanon, New Hampshire) was administered to each mouse intravenously.
Test [4] relates to donor-specific allo-antibody (IgM, IgG). In words: Allo-antibody in transplant recipient sera (staining of donor splenocytes). The format is in vivo, mouse. As to conditions: C3H heart in C57BL/6; sera eight days after transplantation. As for the experimental part: In these experiments, sera were collected from transplant recipients (from control-treated, sCD83-treated and treatment-naïve individuals). Splenocytes were removed from the transplant donor(s) and incubated with the transplant recipient sera. The binding of antibodies from the allo-anti sera to the surface of the transplant donor splenocytes was monitored selectively using antibodies specific for the Fc-fragments of mouse IgM and IgG. […] Stained cells can be analyzed using FACS.
In the transplantation procedure, hearts were removed from C3H mice and transplanted into C57BL/6 mice, which were then either treated with sCD83 or left untreated. Sera were collected from the C57BL/6 transplant recipients eight days after transplantation (the approximate time when untreated mice would typically reject the transplant (i.e., show full tissue rejection)). This recipient sera was then used to stain splenocytes from the C3H donors, and allo-antibody binding was detected with FITC-conjugated antibodies specific to either the anti-IgG or anti-IgM Fc-fragment. […] Sera from untreated transplant recipients was also able to stain C3H-donor-derived splenocytes above control levels.

A further test has as its system spleen cells. Put plainly: KLH re-stimulation assay, CD83 window of effectiveness. In kind it is in vivo, CBA mice. As to conditions: sCD83 100 μg 10 times every second day; KLH after 11 days; spleen cells ten days later. Here is the method: Mice were evaluated to determine the period of time after administration of CD83 in which a subject would be tolerized to another administered antigen. Soluble CD83 (100 μg) was administered to CBA mice by injection 10 times every second day. After 11 days, treated animals were immunized with keyhole limpet hemocyanin (KLH, 10 μg). Ten days later, spleen cells were removed and re-stimulation assays were performed as described in International patent publication WO 2004/046182, the contents of which are incorporated by reference.

The subject of test [5] is mouse immunostimulatory dendritic cells and mouse T cells. Put plainly: Allogenic MLR assay with murine BM-DCs and T cells. In kind it is cell-based. Here is the method:
C57/BL6 mice and BALB/C mice (male or female; Charles River, Wiga, Sulzfeld, Germany) were used at the ages of between 1 and 4 months. Generation of bone-marrow-derived dendritic cells (“BM-DCs”) was performed as described in Lutz et al. (1999) J. Immunol. Meth. 223: 77. RPMI 1640 (Life Technologies, Karlsruhe, Germany) was supplemented with 100 U/ml penicillin (Sigma), 100 μg/ml streptomycin (Sigma), 2 mM L-glutamine (Sigma), […] (Sigma), and 10% heat-inactivated filtered FCS (PAA, Colbe, Germany). GM-CSF was used at 200 U/ml (PrepoTech/Tebu, Rocky Hill, N.J.) on days 0, 3, 6 and 8 of the incubation period.
An allogenic MLR assay was performed as follows: CD4^+ and CD8^+ T cells were isolated from inguinal and […] lymph nodes of BALB/C mice and co-cultured (2×10^5 cells/well) for 3 days with BM-DCs (at different ratios) that had been processed through day 9 of the preparation protocol for BM-DCs. Culture was in 96-well culture dishes, and the media was 200 microliters RPMI 1640 supplemented with 100 U/ml penicillin, 100 µg/ml streptomycin, 2 mM L-glutamine, […], and 10% heat-inactivated filtered FCS. […] The culture supernatants were harvested onto glass fiber filters using an Inotech 1H-110 harvester (Inotech, Dottikon, Switzerland), and filters were counted in a Wallac 1450 microplate counter (Wallac, Turku, Finnland).

Test [6] concerns B cells of transplant recipient. In words: Ex vivo proliferation of transplant recipient B-cells. Set-up: species or system mouse. As to conditions: C3H heart in C57BL/6; sCD83 100 μg daily i.p.; B cells day 8, stimulated with LPS. As for the experimental part: Antibody Production Protocols for ex vivo Work: B cell proliferation: C57B1/6 mice were given a heterotopic cardiac allograft from a C3H mouse. Mice were then left untreated or were treated with a daily dose of 100 μg of sCD83 by intraperitoneal injection. Mice were then sacrificed on day 8, which was approximately the mean survival time of untreated mice. B-cells were then harvested from the mouse spleens and pure populations of 10^5 B-cells/well were cultured with 2 μg/mL of LPS to stimulate the cells (with no added sCD83). After 48 hours of culture, ^3H-thymidine was added, and after an additional 18-20 hours of culture, the cells were harvested and ^3H-thymidine incorporation was measured.
Eight days after transplantation (when the transplant would typically be rejected in untreated mice), the mice were sacrificed. B cells were purified from recipient mice, cultured, and stimulated with LPS. ^3H-thymidine incorporation was measured as counts per minute (cpm).

“Also recorded” adds a separate entry of the source.

B1: sCD83: recombinant extracellular domain of human CD83 cleaved from GST fusion, with four extra amino acids (Gly-Ser-Pro-Gly) at the amino terminal (protein, listed as Homo sapiens)
chain: GSPGTPEVKVACSEDVDLPCTAPWDPQVPYTVSWVKLLEGGEERMETPQEDHLRGQHYHQKGQNGSFDAPNERPYSLKIRNTTSCNSGTYRCTLQDPDGQRNLSGKVILRVTGCPAQRKEETFKKYRAE
modifications: printed: Gly-Ser-Pro-Gly; (1)..(125) Extracellular domain of human CD83
notes: recombinant extracellular domain of human CD83 cleaved from GST fusion, with four extra amino acids (Gly-Ser-Pro-Gly) at the amino terminal
For B1, the “Regulatory T cells generated by dendritic cells” value in test [1] is recorded as “increased numbers of regulatory T cells”. In test [2], the “Lymphocyte proliferation in response to KLH ([3H]-thymidine incorporation)” value was “did not induce long-lasting, global immunosuppression”. Also, the “MST” value in test [3] was 10.0 ± 1.4 days. Also, the “Allo-antibody activity (donor-specific binding of IgM or IgG)” value in test [4] is “low allo-antibody activity; also recorded: can prevent the induction of an allo-antibody response”. Moreover, the “Tolerization to KLH (re-stimulation assay)” value with spleen cells is on record as “not tolerized to the antigen”. Also, the “Cluster formation between dendritic cells and T cells” value in test [5] is “inhibited”. Besides, the “Ability of murine immunostimulatory dendritic cells to stimulate T cells” value in test [5] ([3H]-thymidine) is “inhibited in a concentration-dependent manner”. In addition, the “Ex vivo B-cell proliferation (3H-thymidine incorporation)” value in test [6] is “suppresses”.
